Among the data in publication PMC11912008 are IC50 of inhibition of translation of nanoluciferase mRNA in RRL values, retold here.

The target in this experiment is Rabbit (Oryctolagus cuniculus) 80S ribosome (rabbit (endogenous in rabbit reticulocyte lysate)) (UniProt G1U0Q2).

“Refolded angiogenin(K54E) (from UniProt P03950 25-147) (enzyme)” returned an IC50 of inhibition of translation of nanoluciferase mRNA in RRL of 440 nM.

“Refolded WT human angiogenin (from UniProt P03950 25-147) (enzyme)” had an IC50 of inhibition of translation of nanoluciferase mRNA in RRL of 33 nM.
